# Measurements reported in patent US20150147342A1.
# How the values were obtained:
# hAng-1-WT (human) [1] = molecular target: hAng-1-WT (human) (UniProt Q15389); assay: SPR, 1 uM blocker + 10 nM hAng-1-WT over hTie-2-mFc surface (competitor), 25 C
# hAng-1-WT (human) [2] = molecular target: hAng-1-WT (human) (UniProt Q15389); assay: SPR, 1 uM blocker + 10 nM hAng-1-WT over hTie-2-mFc surface (competitor), 25 C; RU of Ang-1 bound to Tie-2
# [3] = molecular target: Full-length wild-type human Ang-1 (hAng-1-WT) (human) (UniProt Q15389); assay: cell-based or functional assay
# [4] = molecular target: Full-length wild-type human Ang-1 (hAng-1-WT) (human) (UniProt Q15389); assay: SPR, antibody captured on anti-human IgG, 25 C
# [5] = molecular target: Monomeric fibrinogen-like domain of human Ang2 (hAng-2FD) (human) (UniProt O15123); assay: SPR, antibody captured on anti-human IgG, 25 C
# [6] = molecular target: wild-type human Ang-2 (hAng-2-WT) (human) (UniProt O15123); assay: SPR, antibody captured on anti-human IgG, 25 C
# [7] = molecular target: Dimeric Human Ang-2FD-mFc (human) (UniProt O15123); assay: SPR, antibody captured on anti-human kappa, 25 C
# [8] = molecular target: Dimeric fibrinogen-like domain of monkey (Macca fascicularis) Ang-2 conjugated to human IgG1 (monkey (Macca fascicularis)); assay: SPR, antibody captured on anti-human kappa, 25 C
# [9] = molecular target: Dimeric fibrinogen-like domain of mouse (Mus musculus) Ang-2 conjugated to human IgG1 (mouse (Mus musculus)); assay: SPR, antibody captured on anti-human kappa, 25 C
# [10] = molecular target: Dimeric Human Ang-2FD-mFc (human) (UniProt O15123); assay: SPR, antibody captured on anti-human kappa, 37 C
# [11] = molecular target: Dimeric fibrinogen-like domain of monkey (Macca fascicularis) Ang-2 conjugated to human IgG1 (monkey (Macca fascicularis)); assay: SPR, antibody captured on anti-human kappa, 37 C
# [12] = molecular target: Dimeric fibrinogen-like domain of mouse (Mus musculus) Ang-2 conjugated to human IgG1 (mouse (Mus musculus)); assay: SPR, antibody captured on anti-human kappa, 37 C
# [13] = molecular target: Monomeric fibrinogen-like domain of human Ang2 (hAng-2FD) (human) (UniProt O15123); assay: SPR, antibody captured on anti-human IgG, 37 C, steady-state
# [14] = molecular target: Monomeric fibrinogen-like domain of human Ang2 (hAng-2FD) (human) (UniProt O15123); assay: SPR, peptibody captured
# [15] = molecular target: wild-type human Ang-2 (hAng-2-WT) (human) (UniProt O15123); assay: SPR, peptibody captured
# [16] = molecular target: Full-length wild-type human Ang-1 (hAng-1-WT) (human) (UniProt Q15389); assay: SPR, peptibody captured on anti-human IgG, 25 C
# [17] = molecular target: wild-type human Ang-2 (hAng-2-WT) (human) (UniProt O15123); assay: SPR, peptibody captured on anti-human IgG, 25 C
# [18] = molecular target: wild-type human Ang-2 (hAng-2-WT) (human) (UniProt O15123); assay: SPR, peptibody captured on anti-human IgG, 25 C; remark: listed apart in the source
# [19] = molecular target: Full-length wild-type human Ang-1 (hAng-1-WT) (human) (UniProt Q15389); assay: SPR, peptibody captured on anti-human IgG, 25 C; remark: listed apart in the source
# [20] = molecular target: Full-length wild-type human Ang-1 (hAng-1-WT) (human) (UniProt Q15389); assay: SPR, peptibody captured on anti-human IgG, 37 C
# [21] = molecular target: wild-type human Ang-2 (hAng-2-WT) (human) (UniProt O15123); assay: SPR, peptibody captured on anti-human IgG, 37 C
# [22] = molecular target: Monomeric fibrinogen-like domain of human Ang2 (hAng-2FD) (human) (UniProt O15123); assay: SPR, peptibody captured on anti-human IgG, 25 C, steady-state
# Chain of Dimeric fibrinogen-like domain of monkey (Macca fascicularis) Ang-2 conjugated to human IgG1 (monkey (Macca fascicularis)) (chain, as listed by the source limits assumed): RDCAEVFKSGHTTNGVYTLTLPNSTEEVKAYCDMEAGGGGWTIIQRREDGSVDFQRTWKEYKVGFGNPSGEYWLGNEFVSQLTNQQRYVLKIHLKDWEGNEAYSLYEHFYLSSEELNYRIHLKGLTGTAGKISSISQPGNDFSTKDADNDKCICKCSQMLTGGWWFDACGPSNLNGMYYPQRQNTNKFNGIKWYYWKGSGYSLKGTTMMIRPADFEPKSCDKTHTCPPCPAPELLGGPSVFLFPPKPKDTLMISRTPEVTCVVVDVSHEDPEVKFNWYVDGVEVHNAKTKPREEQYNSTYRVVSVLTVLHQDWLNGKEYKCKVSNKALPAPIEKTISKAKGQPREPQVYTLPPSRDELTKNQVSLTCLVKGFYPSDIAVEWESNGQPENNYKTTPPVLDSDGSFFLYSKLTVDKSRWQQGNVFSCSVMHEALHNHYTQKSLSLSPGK
# Chain of Full-length wild-type human Ang-1 (hAng-1-WT) (human) (Q15389 20-498 limits assumed): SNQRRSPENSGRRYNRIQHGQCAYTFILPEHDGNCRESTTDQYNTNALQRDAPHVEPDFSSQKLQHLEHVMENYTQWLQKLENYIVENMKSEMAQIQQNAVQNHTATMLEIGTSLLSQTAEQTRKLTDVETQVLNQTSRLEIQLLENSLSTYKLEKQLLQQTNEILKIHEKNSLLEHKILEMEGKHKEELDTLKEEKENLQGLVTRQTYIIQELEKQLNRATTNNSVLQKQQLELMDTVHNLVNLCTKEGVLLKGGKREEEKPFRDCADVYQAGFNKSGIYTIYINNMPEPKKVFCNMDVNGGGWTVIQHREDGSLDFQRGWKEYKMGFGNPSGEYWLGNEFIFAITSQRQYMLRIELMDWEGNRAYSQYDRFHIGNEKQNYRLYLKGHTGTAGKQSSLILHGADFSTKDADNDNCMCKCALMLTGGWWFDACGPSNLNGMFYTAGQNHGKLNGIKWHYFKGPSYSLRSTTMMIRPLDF
# Chain of Dimeric fibrinogen-like domain of mouse (Mus musculus) Ang-2 conjugated to human IgG1 (mouse (Mus musculus)) (chain, as listed by the source limits assumed): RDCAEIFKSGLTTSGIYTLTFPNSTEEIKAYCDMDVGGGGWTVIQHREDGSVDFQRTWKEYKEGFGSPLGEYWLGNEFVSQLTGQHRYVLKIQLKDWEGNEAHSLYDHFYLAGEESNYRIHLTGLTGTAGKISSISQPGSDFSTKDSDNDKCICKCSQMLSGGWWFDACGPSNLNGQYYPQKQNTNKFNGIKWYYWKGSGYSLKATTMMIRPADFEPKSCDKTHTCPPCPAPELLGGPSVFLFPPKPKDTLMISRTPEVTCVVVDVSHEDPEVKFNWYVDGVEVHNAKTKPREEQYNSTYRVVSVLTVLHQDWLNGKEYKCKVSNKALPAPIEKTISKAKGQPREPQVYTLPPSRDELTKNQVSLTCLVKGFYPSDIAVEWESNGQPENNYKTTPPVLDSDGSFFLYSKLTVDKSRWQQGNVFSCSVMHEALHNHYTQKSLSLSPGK
# Chain of Monomeric fibrinogen-like domain of human Ang2 (hAng-2FD) (human) (O15123 282-496 limits assumed): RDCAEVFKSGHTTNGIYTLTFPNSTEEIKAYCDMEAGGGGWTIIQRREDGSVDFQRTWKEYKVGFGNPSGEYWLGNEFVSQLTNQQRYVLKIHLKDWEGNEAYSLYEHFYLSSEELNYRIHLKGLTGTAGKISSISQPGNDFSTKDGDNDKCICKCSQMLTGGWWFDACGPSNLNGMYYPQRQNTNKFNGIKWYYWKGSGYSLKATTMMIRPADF
# Chain of Dimeric Human Ang-2FD-mFc (human) (O15123 282-496 limits assumed): as above
# Chain of wild-type human Ang-2 (hAng-2-WT) (human) (O15123 19-496 limits assumed): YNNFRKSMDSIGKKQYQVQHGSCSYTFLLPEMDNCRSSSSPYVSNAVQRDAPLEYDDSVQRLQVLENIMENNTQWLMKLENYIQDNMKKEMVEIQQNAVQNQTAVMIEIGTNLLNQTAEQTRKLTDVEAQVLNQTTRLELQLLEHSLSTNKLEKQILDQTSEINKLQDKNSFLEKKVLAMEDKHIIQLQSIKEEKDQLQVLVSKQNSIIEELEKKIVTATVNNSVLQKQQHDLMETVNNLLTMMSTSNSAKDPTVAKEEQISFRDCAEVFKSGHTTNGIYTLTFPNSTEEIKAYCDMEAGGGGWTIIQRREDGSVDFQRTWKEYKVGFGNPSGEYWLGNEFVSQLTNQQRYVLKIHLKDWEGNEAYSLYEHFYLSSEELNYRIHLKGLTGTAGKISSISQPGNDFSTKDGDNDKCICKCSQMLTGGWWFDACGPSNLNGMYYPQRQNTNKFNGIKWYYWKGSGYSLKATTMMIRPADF
# Chain of hAng-1-WT (human) (Q15389 20-498 limits assumed): as the sequence (Q15389 20-498 limits assumed) above
substance,measurement,setting,value
Negative Control (irrelevant peptibody) (Fc fusion),Percent of Negative Control Binding,hAng-1-WT (human) [1],100%
same,RU (average),hAng-1-WT (human) [2],169 RU
Control IV: human anti-Ang-2 antibody with the variable regions of 3.19.3,inhibition of Ang-1-induced Tie-2 phosphorylation in EA.hy926 cells (Western blot),[3],100 nM
same,Kd,[4],0.168 nM
same,T1/2,[4],1.75 h
same,koff,[4],0.000111 s⁻¹
same,kon,[4],660000 M⁻¹ s⁻¹
same,Kd,[5],125 nM
same,T1/2,[5],19 s
same,koff,[5],0.0356 s⁻¹
same,kon,[5],284000 M⁻¹ s⁻¹
same,Kd,[6],0.0722 nM
same,T1/2,[6],0.7 h
same,koff,[6],0.000274 s⁻¹
same,kon,[6],3.8e+06 M⁻¹ s⁻¹
same,Kd,[7],0.0127 nM
same,T1/2,[7],4.48 h
same,Kd,[8],0.0155 nM
same,T1/2,[8],5.7 h
same,Kd,[9],0.0402 nM
same,T1/2,[9],4.82 h
same,Kd,[10],0.00991 nM
same,T1/2,[10],3.07 h
same,Kd,[11],0.0474 nM
same,T1/2,[11],1.78 h
same,Kd,[12],0.054 nM
same,T1/2,[12],1.98 h
same,Kd,[13],94 nM
Control II: peptibody that binds human Ang-2 having the amino acid sequence of 2XCon4(C) (Fc fusion),Kd,[14],90 nM
same,Kd,[15],0.0447 nM
same,T1/2,[15],5.58 h
same,inhibition of Ang-1-induced Tie-2 phosphorylation in EA.hy926 cells (Western blot),[3],50 nM
same,Kd,[16],0.0782 nM
same,T1/2,[16],5.43 h
same,koff,[16],3.54e-05 s⁻¹
same,kon,[16],453000 M⁻¹ s⁻¹
same,Kd,[17],0.0447 nM
same,T1/2,[17],5.58 h
same,koff,[17],3.45e-05 s⁻¹
same,kon,[17],773000 M⁻¹ s⁻¹
same,Kd,[18],0.652 nM
same,T1/2,[18],3.55 h
same,koff,[18],5.41e-05 s⁻¹
same,kon,[18],83000 M⁻¹ s⁻¹
same,Kd,[19],0.0826 nM
same,T1/2,[19],7.67 h
same,koff,[19],2.51e-05 s⁻¹
same,kon,[19],304000 M⁻¹ s⁻¹
same,Kd,[20],0.155 nM
same,T1/2,[20],4.43 h
same,koff,[20],4.35e-05 s⁻¹
same,kon,[20],281000 M⁻¹ s⁻¹
same,Kd,[21],3.09 nM
same,T1/2,[21],1.65 h
same,koff,[21],0.000117 s⁻¹
same,kon,[21],37900 M⁻¹ s⁻¹
same,Kd,[22],90 nM
